# Measured values taken from patent publication US20070122429A1, “Designed antigens to elicit neutralizing antibodies against sterically restricted antigen and method of using same” (priority 2005, published 2007).
# Where no end group is shown, it is not given here. MBP = not defined here
# Legend:
# HXB2 Env = target: T1, HXB2 Env (Human immunodeficiency virus type 1 group M subtype B, UniProt P04578); format: cell-based, HIV-1; conditions: range over cell-cell fusion and viral infectivity assays
# T1 construct: expressed in transfected cells; host or cells: Chinese hamster ovary cells expressing HXB2 Env, mixed with HeLa-CD4-LTR-β-galactosidase cells
# Experimental: Cell-cell fusion was monitored. HXB2 Env-expressing Chinese hamster ovary cells were mixed with HeLa-CD4-LTR-β-galactosidase cells in the presence of inhibitors for 20 h at 37° C. Syncytia were stained with 5-bromo-4-chloro-3-indolyl-β-D-galactopyranoside (X-gal) and counted.
# Viral infectivity was measured by the following method: pseudotyped viruses were produced by co-transfecting 293T cells using FuGENE (Roche Applied Science) with pNL4-3.Luc.R-E- and either pEBB-HXB2 or pEBB-JRFL. After 36-48 h, viral supernatants were collected and sterile filtered. HXB2 or JRFL pseudotyped virus was added to HOS-CD4-fusin or HOS-CD4-CCR5 cells, respectively, in the presence of inhibitors. HXB2 assays included 20 μg/ml DEAE-dextran. After 12 h, virus and inhibitor were removed and replaced with fresh media. Cells were lysed 40-44 h after infection using Glo lysis buffer (Promega), and luciferase activity was measured using Bright-Glo (Promega). IC50 values for both assays were calculated by fitting data to the equation, y=k/(1+[inhibitor]/IC50), where y is the normalized number of syncytia or luciferase activity and k is the scaling constant.
# IZN36-MBP = assay: co-precipitation with biotinylated IZN36-MBP on streptavidin beads; format: binding; conditions: SDS-PAGE
# Experimental: This mixture is then added to magnetic streptavidin beads (Dynal), which bind to the biotinylated IZN36-MBP.
substance,measurement,setting,value
MBP-C37: Escherichia coli maltose-binding protein fused by Ser5Gly2 linker to C37 ({MBP}-SSSSSGGHTTWMEWDREINNYTSLIHSLIEESQNQQEKNEQELLHHHHHH; reading uncertain; also: fused to maltose-binding protein (not in chain)),reduction in potency relative to C37,HXB2 Env,75-228 fold
same,binding to IZN36-MBP,IZN36-MBP,reduced binding
